In patent publication US20200095338A1 one finds attenuation of IL-4R activity relative to the control constructs data, which are given here for 1 molecule.

The target of the test is IL-4R (interleukin-4 receptor) (UniProt P24394). As to the kind of experiment: cell-based or functional assay.
UniProt P24394, sequence (P24394 26-825 limits assumed): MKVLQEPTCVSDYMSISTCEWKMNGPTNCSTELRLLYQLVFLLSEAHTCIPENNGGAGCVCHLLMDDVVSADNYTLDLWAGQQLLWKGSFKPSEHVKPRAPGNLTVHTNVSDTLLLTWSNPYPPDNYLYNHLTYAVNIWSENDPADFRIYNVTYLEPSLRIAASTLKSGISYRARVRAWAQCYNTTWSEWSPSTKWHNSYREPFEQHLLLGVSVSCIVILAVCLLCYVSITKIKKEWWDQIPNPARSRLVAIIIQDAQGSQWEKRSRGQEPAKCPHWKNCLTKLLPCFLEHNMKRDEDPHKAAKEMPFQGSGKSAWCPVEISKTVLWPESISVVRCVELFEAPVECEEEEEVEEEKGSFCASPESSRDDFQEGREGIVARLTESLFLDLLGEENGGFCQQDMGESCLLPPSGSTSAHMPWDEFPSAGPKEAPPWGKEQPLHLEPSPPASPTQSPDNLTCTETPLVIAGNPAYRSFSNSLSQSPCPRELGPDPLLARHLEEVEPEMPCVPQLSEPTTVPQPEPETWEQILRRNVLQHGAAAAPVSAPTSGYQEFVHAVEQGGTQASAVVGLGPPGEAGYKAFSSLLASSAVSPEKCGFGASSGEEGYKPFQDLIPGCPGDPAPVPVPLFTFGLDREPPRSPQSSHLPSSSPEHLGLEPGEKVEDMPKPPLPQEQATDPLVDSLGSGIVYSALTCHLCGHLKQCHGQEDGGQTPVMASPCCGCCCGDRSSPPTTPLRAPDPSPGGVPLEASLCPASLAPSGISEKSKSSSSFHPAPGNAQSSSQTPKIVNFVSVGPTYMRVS

B1: anti-IL-4R:anti-CD63 conjugate (streptavidin-conjugated anti-IL-4R antibody combined 1:1 with biotinylated anti-CD63 antibody MEM-259) (bispecific antibody, part only; not given: anti-CD63 MEM-259 antibody, constant regions, V domains shown, part only)
VH: EVQLVESGGGVVQPGRSLRLSCVASGFTFSDYGMHWVRQAPGKGLEWVAVIWYDGSIKYFRDSVKGRFTISRDNSKNTLYLQMNSLRVEDTAHYYCAKESSSWYFYHGLDVWGQGTMVTVSS
VL: EIVMTQSPLSLPVSPGEPASISCRSNQSLLHSNGNNYLAWYLQKPGQSPHLLIYLGSNRASGVPDRFSGSGSGTDFTLKISRVEAGDVGTYFCMQSLQAPPFTFGPGTKVEIKR
modifications: antibody conjugated to streptavidin
With B1, the attenuation of IL-4R activity relative to the control constructs was more than 10%.
